Results taken from article PMC5566439 (2017).

Target: T1, AlkG (rubredoxin-2) (Pseudomonas putida, UniProt Q9WWW4)
T1 chain: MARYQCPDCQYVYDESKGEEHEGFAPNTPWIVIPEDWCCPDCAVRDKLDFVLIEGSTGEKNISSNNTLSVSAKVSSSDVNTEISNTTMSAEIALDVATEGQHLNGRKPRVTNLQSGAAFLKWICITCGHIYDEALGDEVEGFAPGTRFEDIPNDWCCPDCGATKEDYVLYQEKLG
Test: electrochemical activity titration on AlkG-immobilized screen-printed carbon electrode (one-site and two-site binding model fits)

B1: AlkB (protein)
chain: MNGKSSVLDSAPEYVDKKKYFWILSTFWPATPMIGIWLANETGWGIFYGLVLAVWYGVLPLLDAMFGEDFNNPPEEVVEKLEKERYYRVLTYLTVPMHYAALIVSAWWVGTQSMSWFEIVALALSLGIVNGLALNTGHELGHKKEAFDRWMAKIVLAVVGYGHFFIEHNKGHHRDVATPMDPATSRMGENIYKFSTREIPGAFRRAWGLEEQRLSRRGQSVWSFDNEILQPMVITVVLYTLLLAFFGPKMLVFLPIQMAFGWWQLTSANYIEHYGLLREKMADGRYEHQKPHHSWNSNHIVSNLVLFHLQRHSDHHAHPTRSYQSLRDFPGLPALPTGYPGAFLMAMIPQWFRSVMDPKVVNWANGDLSKIQIEDSMRAEYIKKFTHNVGADDKRGATAVAS
Kd: 268 µM
